Experimental data: US20210130473A1 (SILVERBACK THERAPEUTICS, published 2021)
Like-named read-outs stand apart in the source and are kept apart here. Each block holds one binder with its values, some of them ahead of it.

Key:
[1] = molecular target: T1, human ASGR1 (asialoglycoprotein receptor 1) on cells (human, UniProt P07306 1-291); experiment: competition flow cytometry on CHO-S cells with human ASGR1; 200 nM F(ab')2 against 33 nM GalNac-hFc
T1 construct: whole, on cells; also called HepG2 cells; CHO-S cells transfected with human ASGR1 full length DNA
T1 sequence (looked up): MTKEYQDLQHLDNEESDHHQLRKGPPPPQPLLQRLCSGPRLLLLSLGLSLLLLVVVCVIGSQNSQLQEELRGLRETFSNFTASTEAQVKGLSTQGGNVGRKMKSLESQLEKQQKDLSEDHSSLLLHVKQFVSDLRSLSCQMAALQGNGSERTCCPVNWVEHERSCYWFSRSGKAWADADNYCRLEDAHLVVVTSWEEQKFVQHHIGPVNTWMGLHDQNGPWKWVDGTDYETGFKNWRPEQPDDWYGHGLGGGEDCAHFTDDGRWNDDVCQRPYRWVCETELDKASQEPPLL

[2] = molecular target: T1, human ASGR1 (asialoglycoprotein …); experiment: Guava flow cytometry screen on HepG2 cells
[3] = molecular target: T1, human ASGR1 (asialoglycoprotein …); experiment: Guava flow cytometry screen on HepG2 cells; remark: listed apart in the source
[4] = molecular target: T2, Cynomolgus macaque ASGR1 on CHO-S cells (Cynomolgus macaque); experiment: Guava flow cytometry on CHO-S cells expressing cynomolgus ASGR1 (repeat of Table 15)
T2 construct: whole, on cells; also called Cynomologous ASGR1
Method: (§1) Anti-human ASGR1 antibodies of this disclosure were examined for cross-reactivity with Cynomolgus macaque and rat ASGR1. Briefly, sequence encoding Cynomolgus macaque or rat ASGR1 was transiently transfected into CHO-S cells. Transfected cells were before performing cell binding assay. A total of about 1.5×10⁴ transfected cells/well were added to 96-well V-bottom assay plate, incubated at 37° C., 5% CO2 for 48-72 hours, and then washed with culture medium before adding 100 μl of each ASGR1 antibody at different concentrations starting from 100 nM and 3-fold dilutions to a total of eight wells. The cells with antibody were incubated for 40 minutes at 4° C., then washed three times with 200 μl of fresh culture medium. To each well was added 50 μl PE conjugated goat anti-human Fc (SouthemBiotech) at 1:200 dilution in culture medium and then incubated at 4° C. for 20 minutes. After washing the plate once, the treated cells were resuspended in 200 μl culture medium and then the stained cells were analyzed on GUAVA® using Incyte software.

[5] = molecular target: T1, human ASGR1 (asialoglycoprotein …); experiment: flow cytometry on HepG2 cells, anti-human IgG PE secondary, MFI (Geo Mean)
Method: Briefly, 5×10⁴ HepG2 cells/well were contacted with titrating concentrations of anti-ASGR1 antibodies in FACS Buffer (FB: PBS+2% FBS+1 mM CaCl₂)) for 30 minutes at 4° C. Cells were washed twice in FB, then incubated in anti-human IgG PE secondary for 30 minutes at 4° C. Cells were washed twice in FB, then analyzed by flow cytometry.

[6] = molecular target: T2, Cynomolgus macaque ASGR1 on CHO-S cells; experiment: Guava flow cytometry on CHO-S cells expressing cynomolgus ASGR1
Method: as §1

binding result [2]: binds
B4: hzG2D-17 (antibody, human IgG1, kappa, V domains shown)
VH: QVQLVQSGAEVKKPGASVKVSCKASGYTFTGYYMHWVRQAPGQRLEWMGRINPNNGATNYNQNFKDKASLTVDTSASTAYMELSSLRSEDTAVYYCARVNFYYWGQGTTLTVSS
VL: DIKMTQSPSSMYASLGERVTITCKASQVINSYLSWFQQKPGKSPETLIYRANTLVDGVPSRFSGSGSGQDYSLTISSLEYEDLGIYYCLQYAEFPYTFGGGTKLEIKR
notes: humanized VH with the mouse G2D VL

binding result [2]: binds
B5: hzG2D-11 (antibody, human IgG1, kappa)
heavy: not shown
light: DIQMTQSPSSLSASVGDRVTITCKASQVINSYLSWFQQKPGKAPKSLIYRANTLVDGVPSRFSGSGSGTDFTLTISSLQPEDFATYYCLQYAEFPYTFGGGTKVEIKRTVAAPSVFIFPPSDEQLKSGTASVVCLLNNFYPREAKVQWKVDNALQSGNSQESVTEQDSKDSTYSLSSTLTLSKADYEKHKVYACEVTHQGLSSPVTKSFNRGEC

binding result [2]: binds
B6: hzG2D-20 (antibody, human IgG1, kappa)
heavy: not shown
light: DIQMTQSPSSLSASVGDRVTITCKASQVINSYLSWFQQKPGKAPKSLIYRANTLVDGVPSRFSGSGSGTDFTLTISSLQPEDFATYYCLQYAEFPYTFGGGTKVEIKRTVAAPSVFIFPPSDEQLKSGTASVVCLLNNFYPREAKVQWKVDNALQSGNSQESVTEQDSKDSTYSLSSTLTLSKADYEKHKVYACEVTHQGLSSPVTKSFNRGEC

binding result [3]: binds
B9: hzL4L-2 (antibody, IgG1, V domains shown)
VH: QVQLQESGPGLVKPSQTLSLTCTVSGGSITSDYAWNWIRQHPGKGLEWIGYISYSGSTRYNPSLKSRISITRDTSKNQFSLKLSSVTAADTAVYYCARRYRYDEGYGMDYWGQGTTVTVSS
VL: DIQMTQSPSSLSASVGDRVTITCRASENIYSNLAWYQQKPGKAPKLLIYAATNLADGVPSRFSGSGSGTDFTLTISSLQPEDFATYYCQHFWGTPPWTFGGGTKVEIK
notes: IgG1, kappa

binding result [3]: binds
B11: hzL4L-6 (antibody, IgG1, V domains shown)
VH: QVQLQESGPGLVKPSQTLSLTCTVSGYSITSDYAWNWIRQHPGKGLEWIGYISYSGSTRYNPSLKSRVTITRDTSKNQFSLKLSSVTAADTAVYYCARRYRYDEGYGMDYWGQGTTVTVSS
VL: DIQMTQSPSSLSASVGDRVTITCRASENIYSNLAWYQQKPGKAPKLLIYAATNLADGVPSRFSGSGSGTDFTLTISSLQPEDFATYYCQHFWGTPPWTFGGGTKVEIK
notes: IgG1, kappa

binding result [3]: binds
B12: hzL4L-10 (antibody, IgG1, V domains shown)
VH: QVQLQESGPGLVKPSQTLSLTCTVSGYSITSDYAWNWIRQHPGKGLEWIGYISYSGSTRYNPSLKSRISITRDTSKNQFSLKLSSVTAADTAVYYCARRYRYDEGYGMDYWGQGTTVTVSS
VL: DIQMTQSPSSLSASVGDRVTITCRASENIYSNLAWYQQKPGKAPKLLIYAATNLASGVPSRFSGSGSGTDFTLTISSLQPEDFATYYCQHFWGTPPWTFGGGTKVEIK
notes: IgG1, kappa

The remaining lines, values behind:

B1: F(ab')2 fragment of J4F (F(ab')2)
VH: QVQLQQSGDDLVKPGASVKLSCKASGYTFTSYWINWIKQRPGQGLEWIGRIVPGSGSTYYNEMFKDKATLTVDTSSSTAYIQLSSLSSEDSAVYFCARKPNFDVWGAGTTVTVSS
VL: DIVMTQSQKFMSTSVGDRVSVTCKASQNVGTNVAWYQQKPGQSPKAVIYSASYRFSGVPDRLTGSGSGTDFTLTITNVQSEDLAEYFCQQYNSYPLTFGAGTKLELK
% Blocking GalNac Binding [1]: -32.1%

B2: F(ab')2 fragment of G2D (F(ab')2)
VH: EVQLQQSGPELVKPGASVKISCKASGYSFTGYYMHWVKQSHVKSLEWIGRINPNNGATNYNQNFKDKASLTVDKSSSTAYMEFHSLTSEDSAVYYCTSVNFYYWGQGTTLTVSS
VL: DIKMTQSPSSMYASLGERVTITCKASQVINSYLSWFQQKPGKSPETLIYRANTLVDGVPSRFSGSGSGQDYSLTISSLEYEDLGIYYCLQYAEFPYTFGGGTKLEIK
% Blocking GalNac Binding [1]: -0.3%

B3: F(ab')2 fragment of K2E (F(ab')2)
VH: QVQLQQSAAELARPGASVKMSCKASGYTFTSYTMHWVKQRPGQGLEWIGYISPSSGYTEYNQKFKDKTTLTADKSSSTAYMQLSSLTSEDSAVYYCARKFDYWGQGTTLTVSS
VL: DIKMTQSPSSMYASLGERVTITCKASQDINSYLSWFQQKPGKSPKTLIYRANRLVDGVPSRFSGSGSGQDFSLTISSLEYEDMGIYYCLQYDEFPFTFGSGTKLEIK
% Blocking GalNac Binding [1]: 10%

B7: F(ab')2 fragment of hzH8K-1 (F(ab')2)
VH: QVQLQESGPGLVKPSQTLSLTCTVSGGSISSDYAWNWIRQHPGKGLEWIGYRSYRGSTSYNPSLKSRVTISVDTSKNQFSLKLSSVTAADTAVYYCARRGYYGSSSHWYFDVWGQGTTVTVSS
VL: DIQMTQSPSSLSASVGDRVTITCRASENIYSYLAWYQQKPGKAPKLLIYNAKTLAEGVPSRFSGSGSGTDFTLTISSLQPEDFATYYCQHHYGTPLTFGGGTKVEIK
% Blocking GalNac Binding [1]: 81.3%

B8: hzL4L-5 (antibody, IgG1, V domains shown)
VH: QVQLQESGPGLVKPSQTLSLTCTVSGYSISSDYAWNWIRQHPGKGLEWIGYISYSGSTRYNPSLKSRISITRDTSKNQFSLKLSSVTAADTAVYYCARRYRYDEGYGMDYWGQGTTVTVSS
VL: DIQMTQSPSSLSASVGDRVTITCRASENIYSNLAWYQQKPGKAPKLLIYAATNLADGVPSRFSGSGSGTDFTLTISSLQPEDFATYYCQHFWGTPPWTFGGGTKVEIK
notes: IgG1, kappa
binding result [3]: binds

B10: F(ab')2 fragment of hzL4L-14 (F(ab')2)
VH: QVQLQESGPGLVKPSQTLSLTCTVSGYSISSDYAWNWIRQHPGKGLEWIGYISYSGSTRYNPSLKSRVTITRDTSKNQFSLKLSSVTAADTAVYYCARRYRYDEGYGMDYWGQGTTVTVSS
VL: DIQMTQSPSSLSASVGDRVTITCRASENIYSNLAWYQQKPGKAPKLLIYAATNLAEGVPSRFSGSGSGTDFTLTISSLQPEDFATYYCQHFWGTPPWTFGGGTKVEIK
% Blocking GalNac Binding [1]: 90.7%

B13: ASGR1 mAb-C (antibody, V domains shown)
VH: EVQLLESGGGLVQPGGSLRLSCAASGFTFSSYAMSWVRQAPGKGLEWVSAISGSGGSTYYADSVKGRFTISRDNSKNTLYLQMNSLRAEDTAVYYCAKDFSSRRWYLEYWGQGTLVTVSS
VL: SSELTQDPAVSVALGQTVRITCQGDSLRSYYASWYQQKPGQAPVLVIYGKNNRPSGIPDRFSGSSSGNTASLTITGAQAEDEADYYCNSLERIGYLSYVFGGGTKLTVL
notes: control with CDRs of anti-ASGR1 antibody 4F3; mouse IgG2a or human IgG1 isotype by assay; also called 4F3
EC50 [4]: 2.35 nM
EC50 (read off the curve) [5]: ~0.3 µg/mL
EC50 [6]: 2.35 nM

B14: F(ab')2 fragment of ASGR1 mAb-C (F(ab')2)
VH: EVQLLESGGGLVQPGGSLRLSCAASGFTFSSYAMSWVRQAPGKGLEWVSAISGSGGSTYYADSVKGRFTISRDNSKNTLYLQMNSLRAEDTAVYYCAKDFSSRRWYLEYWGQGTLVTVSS
VL: SSELTQDPAVSVALGQTVRITCQGDSLRSYYASWYQQKPGQAPVLVIYGKNNRPSGIPDRFSGSSSGNTASLTITGAQAEDEADYYCNSLERIGYLSYVFGGGTKLTVL
modifications: F(ab')2 fragment: two Fab arms joined at the hinge, with the Fc removed.
% Blocking GalNac Binding [1]: -5.4%
